Reference: paper PMC3186789
Primed or numbered codes have the meaning given here. The star is where a group is joined. Dabcyl′ = CN(C)c1ccc(/N=N/c2ccc(C(=O)*)cc2)cc1; EDANS = O=S(=O)(O)c1cccc2c(NCCN*)cccc12

Biological target: T1, Group B Streptococcus recombinant sortase A SrtA_(ΔN40) (Streptococcus agalactiae strain 515 (serotype Ia)) (UniProt Q8DZY1)
T1 sequence: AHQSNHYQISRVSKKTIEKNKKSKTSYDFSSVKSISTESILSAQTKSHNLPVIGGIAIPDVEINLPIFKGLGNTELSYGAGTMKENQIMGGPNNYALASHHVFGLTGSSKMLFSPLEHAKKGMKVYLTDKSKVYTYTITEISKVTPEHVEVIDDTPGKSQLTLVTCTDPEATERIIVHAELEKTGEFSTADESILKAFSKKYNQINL

B1: AP2-2a peptide (Dabcyl-SFLPKTGM-Edans) (peptide)
peptide: {Dabcyl′}-SFLPKTGM-{EDANS}
SMILES: CSCC[C@H](NC(=O)CNC(=O)[C@@H](NC(=O)[C@H](CCCCN)NC(=O)[C@@H]1CCCN1C(=O)[C@H](CC(C)C)NC(=O)[C@H](Cc1ccccc1)NC(=O)[C@H](CO)NC(=O)c1ccc(/N=N/c2ccc(N(C)C)cc2)cc1)[C@@H](C)O)C(=O)NCCNc1cccc2c(S(=O)(=O)O)cccc12
apparent Michaelis constant K (m,app) of the transpeptidation reaction (FRET assay, 1-384 µM peptide, 3 µM SrtA (ΔN40), 75 mM triglycine, 37°C, 20 mM HEPES pH 7.5): 48.4 µM
